The values below come from patent US20230089620A1 (JIANGSU HENGRUI PHARMACEUTICALS, published 2023).

The target of assay [1] is T1, biotin-labeled IL-2 with a human Fc-tag (Sanyou Biopharmaceutical, GenBank Accession No: P60568-1) (UniProt P60568 21-153, biotin-labeled (site not stated)).
T1 construct: Bought reagent; also called biotinylated IL-2-Fc; not shown: human Fc-tag
The assay can be described thus: ELISA, antibody titrated and captured by anti-human IgG, biotin-IL-2-Fc 2 µg/mL. How it is done:
Anti-human IgG (STAR161, Bio-rad) was diluted to 2 μg/mL with PBS and added at 30 μL/well to coat an ELISA plate, and the plate was incubated overnight at 4° C. The plate was washed with PBST 3 times. The plate was blocked with 1% BSA for 1 h at room temperature and washed with PBST 3 times. […] 30 μL of the antibody solution was added to an ELISA plate, and the plate was incubated at room temperature for 1 h and washed with PBST 3 times. […] The plate was incubated at room temperature for 1 h and washed with PBST 3 times. 30 μL of secondary antibody NeutrAvidin-HRP diluted in a 1:6000 ratio was added. The plate was incubated at room temperature for 1 h and washed with PBST 9 times. 30 μL of TMB was added for color developing for 5-10 min at room temperature, then 30 μL of 2M HCl or H₂SO₄ was added to terminate the reaction. The plate was read for data by a microplate reader at OD 450.
On the technique in general: An ELISA detects its analyte on a solid surface through an enzyme-linked reagent.

Another assay addresses IL-2 (C013, Novoprotein) (UniProt P60568 21-153). Briefly: SPR (Biacore T200), antibody captured on Protein A chip, IL-2 analyte, 1:1 model. How it is done: The solutions flowed at a flow rate of 30 μL/min for dissociation for 300 s. The reaction signals were detected in real time to obtain association and dissociation curves. After the dissociation was completed for each assay cycle, the chip was washed and regenerated with 10 mM Gly-HCl, pH 2.0.

For assay [2], the target named is T1, biotin-labeled IL-2 with a human Fc-tag …. The assay can be described thus: competition ELISA: antibody titrated, pre-incubated with biotin-IL-2-Fc (5 µg/mL); competitor coated IL-2Rβ-Fc. How it is done: (§1) IL-2Rβ-Fc (CJ82, Novoprotein) was diluted to 8 μg/mL with PBS and added at 30 μL/well to coat an ELISA plate, and the plate was incubated overnight at 4° C. The plate was washed with PBST 3 times. The plate was blocked with 1% BSA for 1 h at room temperature and washed with PBST 3 times. […] The plate was incubated at room temperature for 1 h, and washed with PBST 3 times. 30 μL of secondary antibody NeutrAvidin-HRP diluted in a 1:6000 ratio was added, and the plate was incubated at room temperature for 1 h and washed with PBST 9 times. 30 μL of TMB was added for color developing for 5-10 min at room temperature, then 30 μL of 2 M HCl or H₂SO₄ was added to terminate the reaction. The plate was read for data by a microplate reader at OD 450.

The target in assay [3] is T2, IL-2-His (CX66, Novoprotein) (UniProt P60568 21-153).
T2 construct: Bought reagent; not shown: His tag
The assay can be described thus: Octet: reading at 230 s of IL-2-His (100 nM) + antibody (500 nM) on biotin-IL-2Rα-Fc sensor; lower = stronger blocking. How it is done:
A Streptavidin biosensor (Fortebio, #18-5020) was immersed in 200 μL of KB buffer (PBS, pH 7.4, 0.05% tween-20, 0.1% BSA) for 60 s for the wetting treatment. Then, biotinylated IL-2Rα-Fc (CJ78, Novoprotein) was diluted to 10 μg/mL with the KB buffer, and the sensor was immersed in 200 μL of the solution for 150 s. The sensor was immersed in the KB buffer for 60 s to elute excess IL-2Rα. […] The sensor was immersed in the mixture for 300 s for association. […] The values at 230 s after the beginning of the binding were read.

Assay [4] has as its target T1, biotin-labeled IL-2 with a human Fc-tag …. Briefly: Octet: biotin-IL-2-Fc sensor loaded with antibody (500 nM), reading at 230 s of IL-2Rβ-Fc (8000 nM) binding; lower = stronger blocking. How it is done:
A Streptavidin biosensor (Fortebio, #18-5020) was immersed in 200 μL of KB buffer (PBS, pH 7.4, 0.05% tween-20, 0.1% BSA) for 60 s for the wetting treatment. […] The IL-2Rβ-Fc (CJ82, Novoprotein) was diluted to a final concentration of 8000 nM with the KB buffer, and the sensor was immersed in the antibody solution for association for 300 s. […] The values at 230 s after the beginning of the binding of IL-2Rβ-Fc were read.

The target is the same in assay [5]. The assay can be described thus: competition ELISA: antibody titrated, pre-incubated with biotin-IL-2-Fc (1 µg/mL); competitor coated IL-2Rα-Fc. How it is done:
as §1, with “IL-2Rα-Fc (CJ78,” for “IL-2Rβ-Fc (CJ82,”, “Novoprotein) (Accession #NP_000408)” for “Novoprotein)”, “0.5” for “8”

T2 sequence (P60568 21-153 limits assumed): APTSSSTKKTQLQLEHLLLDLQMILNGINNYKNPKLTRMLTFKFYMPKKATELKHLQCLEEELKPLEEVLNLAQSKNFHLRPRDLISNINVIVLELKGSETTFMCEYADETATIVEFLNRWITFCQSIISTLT
Chain of IL-2 (C013, Novoprotein) (P60568 21-153 limits assumed): as above
T1 sequence (P60568 21-153 limits assumed, one chain of several): as the sequence (P60568 21-153 limits assumed) above

B1: D2-60 full-length fully human anti-IL-2 antibody (antibody, human IgG1, kappa, L234A L235A, V domains shown)
VH: QVQLVQSGAEVKKPGASVKVSCKASGYTFTSYGISWVRQAPGQGLEWMGWISAYNGNTNYAQKLQGRVTMTTDTSTSTAYMELRSLRSDDTAVYYCAREYSSWYSGGMDVWGQGTTVTVSS
VL: DIQMTQSPSSLSASVGDRVTITCRASQGISNYLAWYQQKPGKVPKLLIYAASTLQSGVPSRFSGSGSGTDFTLTISSLQPEDVATYYCQKYDSAPFTFGQGTRLEIKR
notes: Human IgG1 with LALA mutation, kappa light chain
By EC50 is commonly meant the concentration at which the effect is half-maximal. What is called Kd is the free concentration of one partner at which half of the binding sites on the other are occupied at equilibrium, for simple one-to-one binding. Broadly, the koff is the rate constant with which the complex falls apart. Usually kon stands for the rate constant with which the complex forms. One may read the IC50 as the point on the concentration scale where inhibition reaches its midpoint. For the molecule B1, the EC50 in assay [1] was 1.43 µg/mL. In the assay with IL-2 (C013, Novoprotein), this molecule came in with a Kd of 12.8 nM, a koff of 0.00651 s⁻¹ and a kon of 509000 M⁻¹ s⁻¹. In assay [2], this molecule showed an IC50 of 8.27 µg/mL. In addition, the “Values for blocking IL-2Rα at an Octet level” value (“Values for blocking IL-2Rα” for short) in assay [3] is 0.754. The “Values for blocking IL-2Rβ at an Octet level” value (from here on “Values for blocking IL-2Rβ”) in assay [4] is 0.086.

B2: B2-15 full-length fully human anti-IL-2 antibody (antibody, human IgG1, kappa, L234A L235A, V domains shown)
VH: EVQLLESGAEVKKPGASVKVSCKASGYTFTSYYMHWVRQAPGQGLEWMGIINPSGGSTSYAQKFQGRVTMTRDTSTSTVYMELSSLRSEDTAVYYCAREGNSSGYYNAFDIWGQGTMVTVSS
VL: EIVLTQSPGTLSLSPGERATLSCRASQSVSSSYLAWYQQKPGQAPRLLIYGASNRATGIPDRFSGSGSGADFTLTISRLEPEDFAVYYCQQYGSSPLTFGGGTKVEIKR
notes: as for B1
As to B2, in assay [1], the EC50 stood at 2.12 µg/mL. Moreover, in the assay with IL-2 (C013, Novoprotein), binding was characterised by a dissociation constant (Kd) of 30.6 nM, the koff was 0.0448 s⁻¹ and the kon came to 1.46e+06 M⁻¹ s⁻¹. Besides, in assay [2], the concentration for half-maximal inhibition (IC50) was 3.04 µg/mL. Further, the “Values for blocking IL-2Rα” value in assay [3] stood at 0.7. Also, the “Values for blocking IL-2Rβ” value in assay [4] was 0.056.

B3: A2-22 full-length fully human anti-IL-2 antibody (antibody, human IgG1, kappa, L234A L235A, V domains shown)
VH: QVQLVQSGAEVKKPGASVKVSCKASGYTFTSYYMHWVRQAPGQGLEWMGIINPSGGSTSYAQKFQGRVTMTRDTSTSTVYMELSSLRSEDTAVYYCAREDWMEYEYYYGMDVWGQGTLVTVSS
VL: EIVLTQSPGTLSLSPGERATLSCRASQSVSNNYLAWYQQKPGQAPRLLIYGASSRATGIPDRFSGSGSGTDFTLTISRLEPEDFAVYSCQQYGSSPLTFGQGTRLEIKR
notes: Human IgG1 with L234A/L235A (LALA), kappa light chain; expressed in HEK293
Turning to B3, the EC50 in assay [1] was found to be 1.29 µg/mL. Moreover, in the assay with IL-2 (C013, Novoprotein), the affinity, expressed as Kd, was 39.8 nM; the koff was 0.0527 s⁻¹; the kon came out at 1.33e+06 M⁻¹ s⁻¹. In assay [2], this molecule had an IC50 of 2.73 µg/mL. Moreover, in assay [3], the “Values for blocking IL-2Rα” value is 0.848. In addition, in assay [4], the “Values for blocking IL-2Rβ” value amounted to 0.042.

B4: A3-21 full-length fully human anti-IL-2 antibody (antibody, human IgG1, lambda, L234A L235A, V domains shown)
VH: EVQLLESGGGLAQPGGSLRLSCAGSGFTFSSYAMSWVRQAPGKGLEWVSGITGTGYRTYYADSVKGRFTVSRDNSRNTVYLQMNSLRAEDTAVYYCVRESGHYYGWFDSWGQGTLVTVSS
VL: QSALTQPPSVSGAPGQRVTISCTGSSSNIGAGYNVHWYQQVPGTVPKLLIDGKGNRPSGVPDRFSGSKSGTSASLAITGLQAEDEADYYCQSYDYMLSGSVVFGRGTKLTVLG
notes: Human IgG1 with LALA mutation
In turn, B4 came in with an EC50 in assay [1] of 1.35 µg/mL. Moreover, the IC50 in assay [5] stood at 1.46 µg/mL; in assay [2], 3.48 µg/mL. Moreover, in assay [3], the “Values for blocking IL-2Rα” value worked out at 0.428. Besides, in assay [4], the “Values for blocking IL-2Rβ” value amounted to 0.003.

B5: D3-68 full-length fully human anti-IL-2 antibody (antibody, human IgG1, kappa, L234A L235A, V domains shown)
VH: QVQLVQSGPEVKKPGASVKVSCKASGYTFTSYGISWVRRAPGQGLEWMGWISAYNGNTNYAQKLQGRVTMTTDTSTSTAYMELRSLRSDDTAVYYCARDLQSPTYYYGSGVIDYWGQGTLVTVSS
VL: DIQLTQSPSTLSASVGDRVTISCRASRAVSPWLAWYQHRPGQAPKLLIYAASSLQSGVPSRFSGSGSGTDFTLTISSLQPEDFATYYCQQYRSYPFTFGPGTTVDIRR
notes: as for B1
In the case of B5, in assay [1], a half-maximal effect (EC50) was put at 1.21 µg/mL. In the assay with IL-2 (C013, Novoprotein), this molecule showed a Kd of 4.72 nM, a koff of 0.0546 s⁻¹ and a kon of 1.16e+07 M⁻¹ s⁻¹. The concentration for half-maximal inhibition (IC50) in assay [5] was 1.2 µg/mL. Moreover, the IC50 in assay [2] was found to be 2.13 µg/mL. For the same molecule, the “Values for blocking IL-2Rα” value in assay [3] stood at 0.473. Also, the “Values for blocking IL-2Rβ” value in assay [4] was found to be 0.027.

B6: C2-53 full-length fully human anti-IL-2 antibody (antibody, human IgG1, kappa, L234A L235A, V domains shown)
VH: EVQLVESGGGLVQPGRSLILSCAASGFTFDDYAMHWVRQAPGKGLEWVSGISWNSGSIGYADSVKGRFTISRDNAKNSLYLQMNSLRAEDTALYYCAKDQLRWGTYYYYGMDVWGQGTTVTVSS
VL: DIQMTQSPSTLSASVGDRVTITCRASQSVSIWVAWYQQKPGKAPKLLIYKASSLERGVPTRFSGSGSGTEFTLTISSLQPEDFATYHCQQYDTGATFGQGTKVEMKR
notes: as for B1
Molecule B6 showed an EC50 in assay [1] of 0.73 µg/mL. In the assay with IL-2 (C013, Novoprotein), this molecule showed a Kd of 0.267 nM, a koff of 0.00437 s⁻¹ and a kon of 1.64e+07 M⁻¹ s⁻¹. In addition, the IC50 in assay [5] was determined as 0.659 µg/mL. This molecule also had an IC50 in assay [2] of 1.44 µg/mL. Also, the “Values for blocking IL-2Rα” value in assay [3] came out at 0.41. Besides, the “Values for blocking IL-2Rβ” value in assay [4] amounted to 0.017.
